Experimental data as given in publication doi:10.1101/2022.02.08.479534, “FoxP3 can fold into two distinct dimerization states with divergent functional implications for T cell homeostasis” (bioRxiv, 2022).

Tests used:
[1] = biological target: the molecule itself; assay: SEC-MALS; NusA-fused proteins on Superdex 200 Increase 10/300; 20 mM Tris pH 7.5, 500 mM NaCl, 2 mM DTT; miniDAWN MALS and Optilab dRI detectors
[2] = biological target: the molecule itself; assay: cross-linking; 2 μM FoxP3^forkhead with 100 μM BMOE in 1x PBS, 1 h at 25°C, quenched with 10 mM DTT; SDS-PAGE, Krypton stain
[3] = biological target: T1, MBP-tagged FoxP3^RBR-forkhead (mouse, UniProt Q99JB6 284-423); assay: pull-down; MBP pull-down: MBP-FoxP3^RBR-forkhead 1 μM with GST-Runx1(371-451) 0.5 μM, with or without 2 μM DNA (IR-FKHM^4g or single FKHM), 30 min at room temperature in RIPA buffer; settings: both partners purified
T1 construct: FoxP3, mouse, RBR-forkhead, residues 284-423; cloned into a modified pMAL-c2 vector; also called MBP-FoxP3^RBR-forkhead; His6-MBP fused FoxP3^RBR-forkhead; source: E. coli BL21(DE3), purified (Ni-NTA, Superdex 200)
T1 sequence (looked up): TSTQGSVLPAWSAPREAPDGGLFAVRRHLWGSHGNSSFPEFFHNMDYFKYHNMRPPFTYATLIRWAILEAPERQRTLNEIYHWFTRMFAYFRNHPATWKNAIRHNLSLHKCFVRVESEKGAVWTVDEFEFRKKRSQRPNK

B1: NusA-tagged FoxP3^RBR-forkhead R337Q (domain or fragment, mouse, UniProt Q99JB6 284-423, looked up)
chain: TSTQGSVLPAWSAPREAPDGGLFAVRRHLWGSHGNSSFPEFFHNMDYFKYHNMQPPFTYATLIRWAILEAPERQRTLNEIYHWFTRMFAYFRNHPATWKNAIRHNLSLHKCFVRVESEKGAVWTVDEFEFRKKRSQRPNK
notes: FoxP3, mouse, RBR-forkhead, residues 284-423 with the IPEX mutation R337Q; R337Q is a mutation of human IPEX patients, here put into the mouse protein; also called R337Q FoxP3^RBR-forkhead; FoxP3^RBR-forkhead with R337Q; source: E. coli BL21(DE3), purified (Ni-NTA, Superdex 200), HRV3C cleavage omitted; not shown: His6, N-terminal, kept; NusA, N-terminal, kept
For B1, the “stoichiometry N” value [1] was 2.

B2: NusA-tagged FoxP3^RBR-forkhead Y373V (domain or fragment, mouse, UniProt Q99JB6 284-423, looked up)
chain: TSTQGSVLPAWSAPREAPDGGLFAVRRHLWGSHGNSSFPEFFHNMDYFKYHNMRPPFTYATLIRWAILEAPERQRTLNEIYHWFTRMFAVFRNHPATWKNAIRHNLSLHKCFVRVESEKGAVWTVDEFEFRKKRSQRPNK
notes: FoxP3, mouse, RBR-forkhead, residues 284-423 with the IPEX mutation Y373V; Y373V is a mutation of human IPEX patients, here put into the mouse protein; also called Y373V FoxP3^RBR-forkhead; source: E. coli BL21(DE3), purified (Ni-NTA, Superdex 200), HRV3C cleavage omitted; not shown: His6, N-terminal, kept; NusA, N-terminal, kept
With B2 the “stoichiometry N” value [1] was 4.

B3: NusA-tagged FoxP3^forkhead (domain or fragment, mouse, UniProt Q99JB6 336-423, looked up)
chain: MRPPFTYATLIRWAILEAPERQRTLNEIYHWFTRMFAYFRNHPATWKNAIRHNLSLHKCFVRVESEKGAVWTVDEFEFRKKRSQRPNK
notes: FoxP3, mouse, forkhead domain, residues 336-423; NusA (60 kDa) kept for SEC-MALS; also called isolated FoxP3 forkhead; source: E. coli BL21(DE3), purified (Ni-NTA, Superdex 200), HRV3C cleavage omitted; not shown: His6, N-terminal, kept; NusA, N-terminal, kept
With B3 the “stoichiometry N” value [1] was 2.

B4: FoxP3^forkhead C394S T368C (swap dimer-specific X-linking construct) (domain or fragment, mouse, UniProt Q99JB6 336-423, looked up)
chain: MRPPFTYATLIRWAILEAPERQRTLNEIYHWFCRMFAYFRNHPATWKNAIRHNLSLHKSFVRVESEKGAVWTVDEFEFRKKRSQRPNK
notes: FoxP3, mouse, forkhead, residues 336-423 with C394S and T368C; source: E. coli BL21(DE3), purified (Ni-NTA, HRV3C cleavage, Superdex 75); not shown: His6, N-terminal, cleaved; NusA, N-terminal, cleaved
B4: binds [2].

B5: GST-tagged Runx1 (residue 371-451) (domain or fragment, mouse, UniProt Q03347 371-451, looked up)
chain: GSPSYHLYYGASAGSYQFSMVGGERSPPRILPPCTNASTGAALLNPSLPSQSDVVETEGSHSNSPTNMPPARLEEAVWRPY
notes: cloned into pGEX-6P-1; also called Runx1^ΔN; source: E. coli BL21(DE3), purified (Ni-NTA, Superdex 200)
B5: binds [3].

B6: NusA-tagged FoxP3^ΔN (domain or fragment, mouse, UniProt Q99JB6 188-423, looked up)
chain: GSYPLLANGVCKWPGCEKVFEEPEEFLKHCQADHLLDEKGKAQCLLQREVVQSLEQQLELEKEKLGAMQAHLAGKMALAKAPSVASMDKSSCCIVATSTQGSVLPAWSAPREAPDGGLFAVRRHLWGSHGNSSFPEFFHNMDYFKYHNMRPPFTYATLIRWAILEAPERQRTLNEIYHWFTRMFAYFRNHPATWKNAIRHNLSLHKCFVRVESEKGAVWTVDEFEFRKKRSQRPNK
notes: FoxP3, mouse, ZF, CC, RBR and forkhead, residues 188-423; source: E. coli BL21(DE3), purified (Ni-NTA, Superdex 200), HRV3C cleavage omitted; not shown: His6, N-terminal, kept; NusA, N-terminal, kept
With B6 the “stoichiometry N” value [1] was 2.
